Data reported in patent US20200283536A1 (Pfizer, published 2020).
Like-named read-outs stand apart in the source and are kept apart here.

B1: 16D6-CPI (antibody, V domains shown)
VH: QVQLKESGPGLVAPSQSLSITCTVSGFSLTNFDISWIRQPPGKGLEWLGVMWTGGGTNYNSAFMSRLSISRDISKSQVSLKMSSLQTDDTAIYYCVRGDTYFFAMDYWGQGTSVTVSS
VL: DIVMSQSPSSLAVSAGEKVTMSCKSSQSLLSSGTRKNFLSWYQQKTGQSPKLLIYWASTRGSGVPDRFTGSGSGTDFTLTISSVQTEDLAVYYCKQSYNLYTFGGGTKLEIKR
modifications: CPI agent through an AcLysValCitPABC linker, DAR ~2; site not stated for this antibody
B2: 3D1-CPI (antibody, V domains shown)
VH: EVQLQQSGPELVKPGASVKMSCKASGYTFSDYFMKWVKQSHGKRLEWIGDINPNNGETFYNHHFKGKATLTIDKSSSTAYMQLNSLTSDDSAVYYCARPRRGNAMDFWGQGTSVTVSS
VL: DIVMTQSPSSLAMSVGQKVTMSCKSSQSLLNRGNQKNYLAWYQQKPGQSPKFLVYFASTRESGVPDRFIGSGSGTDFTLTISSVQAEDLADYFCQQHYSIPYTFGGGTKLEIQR
modifications: CPI agent through an AcLysValCitPABC linker, DAR ~2; site not stated for this antibody
B3: 20D7-CPI (antibody, V domains shown)
VH: EVQLVESGGGLVQPGGSLRLSCAASGYSITDFLMYWVRQAPGKGLEWVAWIDPEDGETKYAQKFQSKARFTISRDNAKNSLYLQMNSLRAEDTAVYYCARWGYITDYFYGGFTYWGRGTLVTVSS
VL: DIQMTQSPPVLSASVGDRVTLSCKASQNINKNLDWYQQKHGEAPKLLIYHTNTLQMGIPSRFSGSGSGTDYALTITSLQPEDVATYYCYQYNSGPTFGAGTKLELRR
modifications: CPI agent through an AcLysValCitPABC linker, DAR ~2; site not stated for this antibody
B4: h18G3-AcLysValCitPABC-DMAE-CO_CPI-000638314 (antibody, IgG1, V domains shown)
VH: EVQLVESGGGLVQPGGSLRLSCAASGFSLTSGDISWVRQAPGKGLEWVAVIWSGGGTNYGSRLMSRFTISRDNAKNSLYLQMNSLRAEDTAVYYCARDWGNFYFDYWGQGTLVTVSS
VL: DIQMTQSPSSLSASVGDRVTITCKSSQSLLSSGTRKNYLAWYQQKPGKAPKLLIYWASTRQSGVPSRFSGSGSGTDFTLTISSLQPEDFATYYCSQSYNLYTFGQGTKLEIKR
modifications: AcLysValCitPABC-DMAE-CO_CPI linker-agent conjugated site-specifically at Q296 (LLQG tag), DAR ~2
B5: 18G3 conjugated to CTI (glucuronide) (antibody, V domains shown)
VH: B4 VH
VL: B4 VL
modifications: CTI (glucuronide) agent conjugated; linker and site not stated
B6: 18G3 conjugated to iPr-calicheamicin (antibody, V domains shown)
VH: B4 VH
VL: B4 VL
modifications: iPr-calicheamicin conjugated; linker and site not stated

Assays:
Assay in all cases: cell-based or functional assay
[1] = target: T1, CD123 (alpha chain of the interleukin-3 receptor) (human, UniProt P26951 19-378)
T1 sequence (P26951 19-378): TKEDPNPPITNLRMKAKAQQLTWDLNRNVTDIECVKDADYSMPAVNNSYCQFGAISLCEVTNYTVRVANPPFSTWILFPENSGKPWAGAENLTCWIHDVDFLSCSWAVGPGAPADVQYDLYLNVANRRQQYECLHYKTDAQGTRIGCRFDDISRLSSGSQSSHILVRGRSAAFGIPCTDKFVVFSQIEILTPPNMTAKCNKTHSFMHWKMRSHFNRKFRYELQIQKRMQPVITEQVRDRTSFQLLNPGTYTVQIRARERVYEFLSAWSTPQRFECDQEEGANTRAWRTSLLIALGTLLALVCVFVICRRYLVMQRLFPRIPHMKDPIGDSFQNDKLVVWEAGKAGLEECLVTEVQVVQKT

[2] = target: T1, CD123 (alpha chain of the interleukin-3 …); remark: listed apart in the source
[3] = target: T1, CD123 (alpha chain of the interleukin-3 …); remark: listed apart in the source
[4] = target: T1, CD123 (alpha chain of the interleukin-3 …); remark: listed apart in the source

Row | Binder | IC50 (ng/mL), cytotoxicity in MOLM13 cells, IL-3 at 0 ng/ml [1] | IC50 (ng/mL), cytotoxicity in MOLM13 cells, IL-3 at 0.3 ng/ml [1] | IC50 (ng/mL), cytotoxicity in MOLM13 cells, IL-3 at 1 ng/ml [1] | IC50 (ng/mL), cytotoxicity in MV4-11 cells, IL-3 at 0 ng/ml [1] | IC50 (ng/mL), cytotoxicity in MV4-11 cells, IL-3 at 0.3 ng/ml [1] | IC50 (ng/mL), cytotoxicity in MV4-11 cells, IL-3 at 1 ng/ml [1] | IC50 (ng/mL), 2D in vitro cytotoxicity (CelltiterGlo, 96 hours), JVM3 cells (CD123 ++) [2] | IC50 (ng/mL), 2D in vitro cytotoxicity (CelltiterGlo, 96 hours), MOLM13 cells (CD123 +++) [2] | IC50 (ng/mL), 2D in vitro cytotoxicity (CelltiterGlo, 96 hours), MV411 cells (CD123 +++) [2] | other results
1 | B1 | 0.23 ng/mL | 0.23 ng/mL | 0.19 ng/mL | 1.25 ng/mL | 1.13 ng/mL | 1.13 ng/mL | 0.59 ng/mL | 0.22 ng/mL | 0.4 ng/mL | 
2 | B2 |  |  |  |  |  |  |  | 0.33 ng/mL |  | 
3 | B3 |  |  |  |  |  |  |  | 0.32 ng/mL |  | 
4 | B4 | 0.14 ng/mL | 0.12 ng/mL | 0.14 ng/mL | 1.07 ng/mL | 1.05 ng/mL | 0.21 ng/mL | 0.69 ng/mL | 0.25 ng/mL | 0.41 ng/mL | IC50 (ng/mL), 2D in vitro cytotoxicity (CelltiterGlo, 96 hours), Granta519 cells (CD123 ++) [2]: 0.38 ng/mL; IC50 (ng/mL), 2D in vitro cytotoxicity (CelltiterGlo, 96 hours), NB4 cells (CD123 +) [2]: 63.9 ng/mL; IC50 (ng/mL), 2D in vitro cytotoxicity (CelltiterGlo, 96 hours), OCI-AML3 cells (CD123 +) [2]: 2.65 ng/mL
5 | B5 |  |  |  |  |  |  |  |  |  | IC50 (ng/mL), in vitro cytotoxicity, Granta519 cells (CD123 ++) [3]: 0.26 ng/mL; IC50 (ng/mL), in vitro cytotoxicity, JVM3 cells (CD123 ++) [3]: 1.3 ng/mL; IC50 (ng/mL), in vitro cytotoxicity, MOLM13 cells (CD123 +++) [3]: 0.33 ng/mL; IC50 (ng/mL), in vitro cytotoxicity, MV411 cells (CD123 +++) [3]: 0.51 ng/mL; IC50 (ng/mL), in vitro cytotoxicity, NB4 cells (CD123 +) [3]: 38.6 ng/mL; IC50 (ng/mL), in vitro cytotoxicity, OCI-AML3 cells (CD123 +) [3]: 2.58 ng/mL
6 | B6 |  |  |  |  |  |  |  |  |  | IC50 (ng/mL), in vitro cytotoxicity, MOLM13 cells (CD123 +++) [4]: 0.0508 ng/mL; IC50 (ng/mL), in vitro cytotoxicity, MV4-11 cells (CD123 +++) [4]: 0.125 ng/mL
